Data taken from US20050227302A1, “Induction of apoptosis via ARTS-IAP complexes” (priority 2004, published 2005).

Assays:
A549 cells = assay: Caspase 3 activity assay in ARTS-transfected A549 cells; assay type: cell-based
Method: (§1) K562 and HL-60 cells were grown in RPMI 1640 medium. A549, COS-7 cells were grown in Dulbecco's modified Eagle medium (DMEM) with 4.5 grams/liter (g/L) D-glucose. All cells were grown at 37° C. in a 5% CO2 atmosphere. All media were supplemented with 10% fetal calf serum (FCS), penicillin (100 U/ml), streptomycin (100 micrograms (μg)/ml) and […] millimolar [mM]) (Biological Industries, Israel). pEF1-AU5 and pEF1-AU5-ARTS constructs were used for all ARTS transient transfection experiments. An AU5 tag was attached to the N' terminus of ARTS as described in ([…] et al, Nat Cell Biol 2: 915-921, 2000). The […] construct was generated by replacing three amino acids ([…]) at the GTP binding site, using site-directed mutagenesis (QuickChangeTM, Stratagene) with the primer: [NT] No: 1). COS-7, K562 and HL-60 cells were transiently transfected using electroporation (EasyjectTM plus-Equibio). A549 cells were transiently transfected using lipofectaminTM (Invitrogen) according to the manufacturer's protocol. The following apoptotic agents were used: TGF-beta (10 ng/ml) for 24 hours in medium containing 1% FCS; […] etoposide for 2 or 16 hours (Sigma); staurosporine (STS) ([…]) for 0-3 hours (Sigma); and arabinoside-c (ara-C, cytosar) (Pharmacia) at […] for 4 hours. In the case of transiently transfected cells, agents were added forty hours after transfections. […]

COS-7 cells [1] = assay: Active caspase 3 immunofluorescence staining in ARTS-transfected COS-7 cells; assay type: cell-based, African Green Monkey
Method: as §1

XIAP [2] = molecular target: T1, XIAP (Homo sapiens, UniProt P98170); assay: GST pull-down assay of ARTS and XIAP; assay type: binding
T1 construct: made in house; host or cells: bacteria (pGEX-XIAP plasmid obtained from Dr. Colin S. Duckett)
T1 sequence (P98170 whole entry): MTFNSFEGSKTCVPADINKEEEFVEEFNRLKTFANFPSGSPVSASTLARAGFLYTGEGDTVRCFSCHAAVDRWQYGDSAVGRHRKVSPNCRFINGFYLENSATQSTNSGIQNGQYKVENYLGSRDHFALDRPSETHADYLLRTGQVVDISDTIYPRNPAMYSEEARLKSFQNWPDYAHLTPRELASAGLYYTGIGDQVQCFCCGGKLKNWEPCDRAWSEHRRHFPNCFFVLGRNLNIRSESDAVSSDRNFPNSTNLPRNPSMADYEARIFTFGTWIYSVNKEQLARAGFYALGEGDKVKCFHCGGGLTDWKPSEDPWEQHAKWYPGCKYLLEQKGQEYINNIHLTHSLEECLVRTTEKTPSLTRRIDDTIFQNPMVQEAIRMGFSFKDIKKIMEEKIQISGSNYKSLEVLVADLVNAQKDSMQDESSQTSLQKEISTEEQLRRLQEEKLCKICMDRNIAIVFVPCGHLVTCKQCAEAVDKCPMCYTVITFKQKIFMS
From the text: For the glutathione-S-transferase (GST)-pull down assays, ARTS was subcloned into the pGEX 4T™ (Pharmacia Biotech) construct; GST-ARTS fusion protein was generated by Polymerase Chain Reaction (PCR) using the following primers: • BamHI-5′-[…]-3′ (SEQ ID No: 4) and • EcoRI-5′ […]-3′ (SEQ ID No: 5) and cloned into BamHI and EcoRI sites in pGEX 4T. Preparation of Beads
For in vitro binding studies, recombinant GST-ARTS or GST-XIAP fusion proteins were purified from bacteria. After sonication, 0.1% Triton X-100 and protease inhibitors (Mini-Complete™, Roche) were added to the bacterial extract followed by 10,000 rotations per minute (RPM) centrifugation. Supernatants of bacterial extracts were collected and incubated in the presence of glutathione-Sepharose 4B beads (Amersham Biosciences) for 30 minute at 4° C. The beads were washed three times.
Cells were lysed in RIPA buffer (150 mM NaCl, 50 mM Tris-HCl (pH 8), 1% NP-40, 0.1% SDS, 0.5% deoxycholate acid containing protease inhibitors (mini Complete, Roche)). Samples were divided into two tubes; one was rotated for 4 h at 4° C. with GST-ARTS fusion protein coupled with the glutathione beads, or GST-XIAP fusion protein. The second tube was incubated with glutathione beads alone (negative control). Samples were centrifuged at 4000-RPM at 4° C. for 4 minute and washed five times in lysis buffer, then boiled in sample buffer for 5 minutes to elute bound proteins Proteins were separated on 12.5% SDS-PAGE gel followed by Western blot analysis using monoclonal anti-ARTS antibody (Sigma), monoclonal anti-XIAP antibody (BD Transduction Laboratories) or monoclonal anti-myc antibody (Clontech).

COS-7 cells [3] = assay: Immunofluorescence of ARTS and XIAP localization in COS-7 cells; assay type: cell-based, African Green Monkey; details: apoptotic cells over-expressing ARTS versus not over-expressing
Method: Cells were fixed with 4% paraformaldehyde in PBS for 20 min at room temperature, washed with PBS, permeabilized with 0.5% Triton-X in PBS for 5 min, and incubated with primary antibodies for 2 hours at room temperature (rabbit polyclonal anti-ARTS (1:20,000; Sigma), monoclonal anti-ARTS, and/or monoclonal anti-XIAP (1:500; used in subsequent Examples). Cells were washed three times with PBS/0.1% Triton-X and incubated with FITC conjugated anti-mouse and Rhodamin^TX-conjugated anti-rabbit secondary antibodies (Jackson). Images were analyzed using a confocal laser microscope (Zeiss LSM 510). Mitochondria were visualized with MitoTracker® Red CMXRos (Molecular Probes/Invitrogen).
For caspase inhibition, we added […] of BOC-Asp(Ome)CH2F (Enzyme Systems Products) one hour prior to addition of the apoptotic agents.

XIAP [4] = assay: XIAP protein levels by Western blot in COS-7 cells; assay type: cell-based, African Green Monkey
Method: Protein extracts were prepared with lysis buffer (150 mM NaCl, 50 mM Tris-HCl (pH 8), 1% NP-40, 0.5% deoxycholate acid) with protease inhibitors. Lysates containing equal amounts of total protein were pre-cleared overnight with 1 mg mouse IgG (Sigma) coupled with protein A/G-Sepharose mix (Amersham Biosciences) and the beads centrifuged. Supernatants were immuno-precipitated using 5 μl of anti-ARTS antibody for 4 h, anti-XIAP antibody, rabbit anti-myc antibody, or mouse IgG (negative control). Protein A/G Sepharose beads were added for 1 hour and washed four times with PBS. Antibodies against XIAP (as above), Myc (Santa Cruz), or anti-ARTS (NT) antibodies directed against the common N′ terminus of ARTS and H5 (ProSci Incorporated) were used for Western blot.
Stably transfected COS-7 pE-ARTS cells were generated using the pEF1-IRES vector (Hobbs S et al, Biochem Biophys Res Commun 252: 368-372, 1998). The construct contains an EF-1 promoter followed by a multi cloning site, an EMC (Encephalomyocarditis virus) internal ribosome entry sites (IRES), and a puromycin resistance gene. AU5-tagged ARTS was inserted into the XhoI site downstream of the EF-1 promoter. The construct was stably transfected into COS-7 cells. The cells were maintained in medium containing 4 μg/ml puromycin.
Cells were treated for 2 hours with […] of the proteasome inhibitor (MG132, Calbiochem) prior to induction of apoptotis.

- binding to GST-XIAP (XIAP [2]; lysates of COS-7 cells transfected with AU5-tagged construct, Western blot anti-AU5): bound to XIAP
- binding of XIAP to GST-ARTS (XIAP [2]; lysates of COS-7 cells transfected with pcDNA3 mycXIAP, Western blot anti-XIAP and anti-Myc): XIAP bound to ARTS
B1: AU5-ARTS (other)
chain: MIKRFLEDTTDDGELSKFVKDFSGNASCHPPEAKTWASRPQVPEPRPQAPDLYDDDLEFRPPSRPQSSDNQQYFCAPAPLSPSARPRSPWGKLDPYDSSEDDKEYVGFATLPNQVHRKSVKKGFDFTLMVAGESGLGKSTLVNSLFLTDLYRDRKLLGAEERIMQTVEITKHAVDIEEKGVRLRLTIVDTPGFGDAVNNTECWKPVAEYIDQQFEQYFRDESGLNRKNIQDNRVHCCLYFISPFGHGYGPSLRLLAPPGAVKGTGQEHQGQGCH
notes: Expressed in transfected COS-7 cells and used as lysate or stained in cells; also called pEF1-AU5-ARTS; AU5-tagged ARTS; not shown: AU5 tag attached to the N' terminus of ARTS
- caspase-3 activity (A549 cells; expression of ARTS in the absence of pro-apoptotic stimuli, A549 cells): little or no effect
- caspase-3 activity (A549 cells; over-expression of ARTS, A549 cells treated with TGF-β): increased caspase-3 activity
- caspase-3 activity (COS-7 cells [1]; expression of ARTS in the absence of pro-apoptotic stimuli, COS-7 cells): little or no effect
- caspase-3 activity (COS-7 cells [1]; over-expression of ARTS, COS-7 cells treated with etoposide): increased caspase-3 activity
- XIAP staining in the nucleus (COS-7 cells [3]): significantly higher levels in the nucleus
- amount of XIAP (XIAP [4]; COS-7 cells transiently transfected with pcDNA3-myc-XIAP and AU5-ARTS versus XIAP alone): significantly decreased
- levels of XIAP (XIAP [4]; COS-7 pE-ARTS cells stably expressing high levels of ARTS): significantly reduced levels of XIAP
- XIAP protein levels (XIAP [4]; transiently transfected COS-7 cells treated with 1 mM staurosporin (STS) for 0, 2 or 5 hours): reduced XIAP protein levels
